Measured values taken from patent US20080095824A1, “Delivery of drugs from sustained release devices implanted in myocardial tissue or in the pericardial space” (Durect Corporation, priority 2001, published 2008).
Like-named read-outs stand apart in the source and are kept apart here.

Legend:
[1] = rat, in vivo
Procedure: (§1) Minipumps, filled with solutions of the substances to be tested, were primed in saline at 37° C. at least 4 hours, prior to connection to the catheter. Before installing pumps, pericardial fluid and orbital sinus blood was sampled, to serve as blanks. 7 days after pump installment, rats were sacrificed by exsanguination under pentobarbitone and pericardial fluid and blood collected. To check for possible loss of substances during infusion, remaining pump contents were analyzed. […] Doses were chosen to achieve concentrations that were readily measurable but without pharmacological effects (risk of bleeding in the case of heparin); similar doses were applied systemically and intrapericardially to be able to make a good comparison between the two routes of administration. Solvent was PBS, except for Texas Red FGF-2 and cortisol which were dissolved in a 10 mg/ml solution of RSA in PBS.

[2] = Time course of infusion into the pericardial space; type: in vivo, male Wistar rats; details: for plasma concentration over time: intrapericardial infusion, 7-day period (bFGF: day 3 through day 7)
Procedure: Substances were administered to the pericardial space of male Wistar rats weighing 250-300 grams by infusion via catheter for 1 week using an Alzet™ osmotic minipump at a volume rate of about 1 μl/hour. Blood and pericardial fluid samples were taken at various time points and the concentration of administered substances was measured fluorimetrically (for fluorescently labeled compounds) or by HPLC (for steroids). Concentration of fluorescently labeled compounds is expressed as fluorescent units/ml fluid.

[3] = Pharmacokinetics after intrapericardial or intra-arterial bolus injection; type: in vivo, rats; details: mean ± SE
Procedure: Immediately after implantation of the pericardial catheter, rats (still under anesthesia) were provided either with a catheter in the right femoral artery essentially as described (Smits et al., 1982). Rats were allowed to recover at least 2 days before experimentation> One hour before start of the experiment, 20 μl pericardial fluid was withdrawn using a Hamilton 1705 (Hamilton Bonaduz, Bonaduz, Switzerland) syringe and 50 μl of saline were injected into pericardial space to check the integrity of the pericardial catheter. Injections of volumes up to 0.2 ml were previously shown to be without hemodynamic effects (Veelken et al., 1990). Blood (0.15-0.25 ml) was collected in a syringe, containing a minimal volume of heparin (Organon Teknika, Boxtel, the Netherlands). Pericardial fluid was diluted 10 times in PBS and the blood was centrifuged for 20 minutes at 3500 rpm to obtain plasma. These samples served as blanks for later analyses. Experiments in which substances were applied intrapericardially were started by a 50 μl bolus injection of the test substances into pericardial space, followed by 20 μl saline to flush the catheter. If substances were applied systemically, experiments were started by a 100 μl bolus injection of the substances and subsequent injection of 300 μl saline into the femoral artery catheter. FITC rat IgG, (10 mg/ml), Texas Red RSA (10 mg/ml), and FITC heparin (1 mg/ml) were dissolved in PBS.
Pericardial fluid (20 μl) and blood samples were taken at various time points after injection. To substitute withdrawn pericardial fluid, 20 μl of saline was injected into pericardial space immediately after sampling. After every sample, the femoral artery catheter was flushed with 0.3 to 0.4 ml saline and filled with heparinized (5-10 IU/ml) saline. Plasma and pericardial fluid samples were stored at −20° C. until analysis.
Data were standardized for bodyweights. Pharmacokinetic analysis of the data for each animal was conducted using the GPAD (GraphPAD Software, San Diego, Calif.) software package. Data were fitted to the exponential equation Ct=A.e^−αt+B. e^−βt of one-(i.e. A is fixed at 0) and two compartment models. Fits were compared using F-tests and data were log transformed for model judgement.

in vivo = details: rat
Procedure: as §1

[4] = In vitro release from SAIB depot of Example 2A; type: physicochemical; details: SAIB:benzyl benzoate:DL-PLG 83:12:5 depot, 500 μL in PBS pH 7.4, 37° C.
Procedure: In this embodiment sotalol (an anti-arrhythmic) is delivered from a depot comprising sucrose acetate isobutyrate (SAIB). A formulation is prepared by mixing SAIB (Eastman Chemical Co.) and benzyl benzoate (Aldrich Chemical Co.) and ploy (DL-lactide-co-glycolide) (DL-PLG) or DL-poly(lactide) (DLPL) in a ratio of 83:12:5 (weight basis) and stirring until a homogeneous mixture is achieved. 10 μg of sotalol is added to 500 μL of the SAIB:benzyl benzoate:DLPLG formulation.
The final depot formulation is prepared by passing the mixture repeatedly between a pair of 5 ml syringes equipped with needles. Multiple passes are performed until a solution is achieved. The final concentration of sotalol in the depot is 0.02 μg/ul.
To determine, in vitro, the release of […] from the formulation, 500 μL of the depot is placed in 750 μL of dissolution buffer (PBS, 0.01 M, pH 7.4 with sodium azide) in a 1.5 mL Eppendorf microcentrifuge tube. The formulations are incubated at 37° C. with no agitation. The entire dissolution buffer is removed and replaced with fresh buffer at the desired sampling times (0.25, 0.5, 1, 2, 3, 4, 5, 6, 24 hr and daily thereafter). The samples are assayed for protein concentration by ELISA. The release rate of drug from this depot is about 0.3 μg per day.

[5] = 7-day intrapericardial infusion (bFGF: days 3 to 7)
[6] = pericardial fluid after intrapericardial bolus injection
[7] = plasma after intra-arterial bolus injection

Compound	Peric/plasma ratio [1]	Peric/plasma ratio ([1]; iv)	ratio of concentration in pericardial fluid to concentration in plasma [2, 5]	plasma concentration over time [2]	Cl (clearance, Dose/AUC) [3, 6] [mL/h/kg]	Vc (initial central compartment volume) [3, 6] [L/kg]	t1/2α [3, 6] [h]	t1/2β [3, 6] [h]	Cl (clearance, Dose/AUC) [3, 7] [mL/h/kg]	Vc (initial central compartment volume) [3, 7] [L/kg]	t1/2β [3, 7] [h]	further results
Texas Red RSA: Texas Red-labelled rat serum albumin	8.11 ± 2.60 (4)	0.98 ± 0.26 (4)	9-15	remained at a constant, low level	0.223 ± 0.054	0.000892 ± 0.000207	0.78 ± 0.233	9.82 ± 2.22	2.43 ± 0.166	0.034734 ± 0.001761	18.87 ± 5	concentration in the pericardial fluid ([2]; day 1 after the start of intrapericardial infusion): about 375 FU/ml; concentration in the pericardial fluid ([2]; day 3, remained at this level through day 7): about 190 FU/ml; t1/2α [3, 7]: 1.48 ± 0.247 h
C[C@]12CCC(=O)C=C1CC[C@@H]1[C@@H]2[C@@H](O)C[C@@]2(C)[C@H]1CC[C@]2(O)C(=O)CO [Cortisol]			12-50	remained at a constant, low level								Kp at 7 days (in vivo; Peric/plasma ratio): 14.4 ± 0.55; Kp at 7 days (in vivo; concentrations in plasma lower than in pericardial fluid): ≥ 7; Peric. Fluid concentration ([1]; 7 days): 1.59 ± 0.44; Plasma concentration ([1]; 7 days): 0.11 ± 0.03; Kp ([2]; male, Wistar, rat, pericardial fluid and plasma, other: intrapericardial infusion, 7-day intrapericardial infusion (bFGF: days 3 to 7), read-out: ratio of concentration in pericardial fluid to concentration in plasma): 12 to 52
CC(C)NCC(O)COc1cccc2ccccc12 (centres unmarked) [propranolol]												release rate of drug from depot [4]: about 0.3 μg per day
Cortisol carbonic acid												clearance derived from steady-state concentration (infusion dose rate/steady state concentration) [1]: 1.85 ± 0.211 mL/h/kg
Texas Red FGF-2: Texas Red-labelled fibroblast growth factor-2 (basic FGF)	6.85 ± 1.61 (4)	1.01 ± 0.38 (2)	2-10	remained at a low level	0.483 ± 0.0198	0.000497 ± 7e-05	0.288 ± 0.0917	1.7 ± 0.317	5.05 ± 0.618	0.03999 ± 0.000923	5.63 ± 0.517	concentration in the pericardial fluid over time ([2]; between day 3 and day 7 after the start of infusion): rose gradually
